Measured values reported in PMC3592470 (Nucleic Acids Research, 2012).
Residue numbers refer to the chain shown, from its start. Names may count otherwise.

T1: BcgI B subunit (UniProt Q07606 1-341)
T1 sequence (looked up): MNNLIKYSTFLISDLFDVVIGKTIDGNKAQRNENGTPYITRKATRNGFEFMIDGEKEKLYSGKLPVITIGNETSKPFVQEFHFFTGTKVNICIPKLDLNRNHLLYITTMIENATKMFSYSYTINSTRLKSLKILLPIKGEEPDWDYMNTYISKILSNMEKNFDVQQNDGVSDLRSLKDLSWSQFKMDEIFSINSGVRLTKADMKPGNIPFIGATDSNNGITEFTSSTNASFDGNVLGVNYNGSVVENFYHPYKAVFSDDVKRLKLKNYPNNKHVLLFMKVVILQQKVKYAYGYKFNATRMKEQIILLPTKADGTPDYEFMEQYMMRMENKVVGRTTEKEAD

B1: BcgI A subunit, wild type (as a subunit of WT BcgI) (enzyme, UniProt Q07605 1-637, looked up)
chain: MVNEKTSTDQLVRRFIEDLGVTYEEQGSSNIQIKQALRSASKSKSQSGVGKPEFIFFSGNHLIIVEDKLAIDKLEYKNNDGIIDTEFPFRRDYAVNGAVHYARHIIEKTNSYKEVIAIGIAGDGLHYQIHPYFVSETELKKLPEMKSLEDISPENIEEFYKVAVLGELPKEERELREVNKIAADMHEDLRNYGQLEGEKKATVVSAILLALEEPTFSLNQLIGSDRVGGTDGEIIFNAVRVYLENAGIVPYAKVGEMLDQFIFIQRDVTLNTVNSNLEMTPLKYFATTLEAEIMDKIKSNTDFDILGNFYGEFVKYGGNDGNPLGIVLTPRHITSLMAELIGINKSDFVLDPACGTGAFLISAMNRMLGQAENDDERRDIKQNRLYGIEIQQKLFTIATTNMILRGDGKSNLIRDNCLTFDNTIMNGYGINKILMNPPYSQAKNDQTQHLSELSFIQQALEMLVVGGKLCAIVPQSTMVGKNRHDKARKKQILKQHTLETVITLNKDTFHGVGVNPCIVIFKAGIKHPENKRVSFVNFEDDGHVVRKHVGLVGDGTEKGKREHLLAVLAGDEDDGTDLIVKTAIKDTDEWLHSFYYFNDGIPSEDDFYKTVANYLTFQFDMTANGKGYLFEGVEENE
B2: BcgI A subunit, E53A mutant (as a subunit of the BcgI E53A protein) (enzyme, UniProt Q07605 1-637, looked up)
chain: B1 chain with E53A

Key:
[1] = biological target: T1, BcgI B subunit; assay: AUC
[2] = biological target: T1, BcgI B subunit; assay: native MS

Binder	stoichiometry N [1] [A per B]	stoichiometry N [2] [A per B]
B1	2	–
B2	–	2
